Laboratory results from PMC4505335, “Selective targeting of PPARγ by the natural product chelerythrine with a unique binding mode and improved antidiabetic potency” (Scientific Reports, 2015).
Where no end group is shown, it is not given here. The star is where a group is joined. Biotin = O=C1N[C@H]2[C@H](CS[C@H]2CCCCC(=O)*)N1

T1: PPARγ (Homo sapiens, UniProt P37231)
T1 construct: gene PPARG; no SRC1 peptide; In-house His6-LBD 206-477 (E. coli) used for crystal and kinase assay
T1 sequence (P37231 234-505 limits assumed): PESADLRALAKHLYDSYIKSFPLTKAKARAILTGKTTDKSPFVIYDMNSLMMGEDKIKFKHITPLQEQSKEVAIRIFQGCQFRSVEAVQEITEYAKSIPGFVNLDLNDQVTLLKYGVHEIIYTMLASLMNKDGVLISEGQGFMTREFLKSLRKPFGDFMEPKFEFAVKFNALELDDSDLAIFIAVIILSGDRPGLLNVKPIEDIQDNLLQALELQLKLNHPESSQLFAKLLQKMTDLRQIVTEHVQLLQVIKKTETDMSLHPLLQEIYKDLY

T2: Human PPARγ LBD (residues 206–477) (human, UniProt P37231-2 206-477)
T2 construct: The tag is detected in the AlphaScreen (hexahistidine detection kit); also called NR1C3; source: E. coli BL21(DE3), purified (Ni HiTrap HP, SP-Sepharose); not shown: His6, N-terminal, kept
T2 sequence (looked up): T1 sequence (P37231 234-505 limits assumed)

B1: NCoR-2, a corepressor peptide from NCoR, N-terminally biotinylated (peptide)
peptide: Biotin-GHSFADPASNLGLEDIIRKALMGSF
notes: second corepressor motif peptide from NCoR (nuclear receptor corepressor 1; not the gene NCOR2/SMRT); also called NCoR-2 corepressor

Legend:
PPARγ = biological target: T1, PPARγ; test: crystal structure at […] Å; Lantha TR-FRET competitive binding; AlphaScreen
[1] = biological target: T2, Human PPARγ LBD (residues 206–477); test: AlphaScreen or HTRF; hexahistidine detection kit; about 20–40 nmol/l His6-PPARγ LBD and 20 nmol/l biotinylated peptide, 5 μg/ml donor and acceptor beads; 50 mmol/l MOPS, 50 mmol/l NaF, 0.05 mmol/l CHAPS, 0.1 mg/ml BSA, pH 7.4; with chelerythrine (5 μmol/l, and dose curves); conditions: both partners purified
[2] = biological target: T2, Human PPARγ LBD (residues 206–477); test: AlphaScreen or HTRF; hexahistidine detection kit; about 20–40 nmol/l His6-PPARγ LBD and 20 nmol/l biotinylated peptide, 5 μg/ml donor and acceptor beads; 50 mmol/l MOPS, 50 mmol/l NaF, 0.05 mmol/l CHAPS, 0.1 mg/ml BSA, pH 7.4; with rosiglitazone (1 μmol/l, and dose curves); conditions: both partners purified

Molecule | binding result [2] | other results
COc1ccc2c(c[n+](C)c3c4cc5c(cc4ccc23)OCO5)c1OC [CHE, chelerythrine] |  | IC50 (PPARγ): 566 nM
B1 |  | binding result [1]: binds
Biotin-QEPVSPKKKENALLRYLLDKDDTKD [SRC2 coactivator peptide, N-terminally biotinylated] | binds | 
Biotin-SPSSHSSLTERHKILHRLLQEGSP [SRC1 coactivator peptide, N-terminally biotinylated] | binds | 
